One assay concerns the target T1, human B7H4 (human, UniProt Q7Z7D3 25-282).
T1 construct: whole, on cells; also called B7H4 on tumor cell SK-BR-3
T1 sequence (looked up): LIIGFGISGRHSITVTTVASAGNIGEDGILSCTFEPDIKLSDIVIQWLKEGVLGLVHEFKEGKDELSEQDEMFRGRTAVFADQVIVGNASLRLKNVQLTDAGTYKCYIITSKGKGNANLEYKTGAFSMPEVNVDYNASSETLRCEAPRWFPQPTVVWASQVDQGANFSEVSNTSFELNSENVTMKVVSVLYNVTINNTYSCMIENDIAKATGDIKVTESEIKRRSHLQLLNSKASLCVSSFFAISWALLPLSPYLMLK
Description: flow cytometry on SK-BR-3 cells expressing human B7H4. The protocol: This Example investigates the ability of the bispecific antibody binding tumor cell SK-BR-3 (ATCC, HTB-30) expressing human B7H4. Specifically, collected cell SK-BR-3 suspension, adjusted the cell density to 1×10⁶/ml, and inoculated them at 100 μl/well in a 96 well V-bottom plate (Corning, #3894); subsequently, the antibody to be tested with a concentration 2-fold of final concentration obtained by 3-fold gradient dilution was added at volume of 100 μl/well. Cells were incubated at 4° C. in the dark for 2 hours. Afterwards, the cells were rinsed twice with 100 μl/well of pre-chilled PBS, centrifuged at 500 g, 4° C. for 5 minutes. The supernatant was discarded. Then added 100 μl/well of secondary antibody Alexa Fluor 488 AffiniPure Goat Anti-Human IgG, Fcγ fragment specific (Jackson ImmunoResearch, #109-545-098), and incubated the cells from light at 4° C. in the dark for 1 hour. Then the cells were rinsed twice with 100 μl/well of pre-chilled PBS, centrifuged at 500 g, for 5 minutes. The supernatant was discarded. Finally, the cells were resuspended with 200 μL/well of pre-chilled PBS. The fluorescent luminescence signal value were read by flow cytometry (BD FACS CANTOII or ACEA NovoCyte), and the resulted data were processed and analyzed by software FlowJo v10 (FlowJo, LLC). […]
(In general: A flow cytometer gives signals particle by particle.)

Another assay has as its target T2, human ROR1 (human, UniProt Q01973 30-937).
T2 construct: whole, on cells; also called ROR1 on tumor cell Panc-1
Description: flow cytometry on Panc-1 cells expressing human ROR1. As to the method: This Example investigates the ability of the bispecific antibody binding tumor cell Panc-1(ATCC, CRL-1469) expressing human ROR1. Specifically, collected cell Panc-1 suspension, adjusted the cell density to 1×10⁶/ml, and inoculated them at 100 μl/well in a 96 well V-bottom plate (Corning, #3894); subsequently, the antibody to be tested with a concentration 2-fold of final concentration obtained by 3-fold gradient dilution was added at volume of 100 μl/well. Cells were incubated at 4° C. in the dark for 2 hours. Afterwards, the cells were rinsed twice with 100 μl/well of pre-chilled PBS, centrifuged at 500 g, 4° C. for 5 minutes. The supernatant was discarded. Then added 100 μl/well of fluorescent secondary antibody Alexa Fluor 488 AffiniPure Goat Anti-Human IgG, Fcγ fragment specific (Jackson ImmunoResearch, #109-545-098), and incubated the cells from light at 4° C. in the dark for 1 hour. Then the cells were rinsed twice with 100 μl/well of pre-chilled PBS, centrifuged at 500 g, for 5 minutes. The supernatant was discarded. Finally, the cells were resuspended with 200 μL/well of pre-chilled PBS. The fluorescent luminescence signal value were read by flow cytometry (BD FACS CANTOII or ACEA NovoCyte), and the resulted data were processed and analyzed by software FlowJo v10 (FlowJo, LLC). […]

T2 sequence (Q01973 30-937): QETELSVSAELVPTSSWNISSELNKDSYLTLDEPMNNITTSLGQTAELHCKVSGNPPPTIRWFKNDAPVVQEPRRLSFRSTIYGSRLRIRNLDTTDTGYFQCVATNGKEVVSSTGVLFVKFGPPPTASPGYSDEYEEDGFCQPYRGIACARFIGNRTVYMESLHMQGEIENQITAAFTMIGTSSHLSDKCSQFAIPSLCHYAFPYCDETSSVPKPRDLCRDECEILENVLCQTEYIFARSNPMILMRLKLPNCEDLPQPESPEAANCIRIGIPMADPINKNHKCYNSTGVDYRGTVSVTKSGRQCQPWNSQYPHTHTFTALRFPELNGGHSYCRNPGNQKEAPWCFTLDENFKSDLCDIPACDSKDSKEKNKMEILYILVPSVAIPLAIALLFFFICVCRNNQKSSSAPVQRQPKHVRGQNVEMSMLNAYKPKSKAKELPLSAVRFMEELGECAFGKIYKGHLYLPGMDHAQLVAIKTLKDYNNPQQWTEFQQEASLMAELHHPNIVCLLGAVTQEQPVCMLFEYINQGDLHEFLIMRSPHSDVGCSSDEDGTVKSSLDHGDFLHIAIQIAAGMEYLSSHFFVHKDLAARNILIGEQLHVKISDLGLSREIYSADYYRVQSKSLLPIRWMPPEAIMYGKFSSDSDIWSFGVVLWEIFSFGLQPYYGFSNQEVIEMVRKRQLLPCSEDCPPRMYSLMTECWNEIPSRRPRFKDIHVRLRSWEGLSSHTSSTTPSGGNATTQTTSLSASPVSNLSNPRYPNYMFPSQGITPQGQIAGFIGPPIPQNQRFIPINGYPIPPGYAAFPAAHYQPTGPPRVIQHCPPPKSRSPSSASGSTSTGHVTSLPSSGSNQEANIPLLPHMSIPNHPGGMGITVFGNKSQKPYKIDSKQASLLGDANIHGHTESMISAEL

B1: B7H4 antibody PR000014 (antibody, V domains shown)
VH: EVQLVQSGAEVKKPGASVKVSCKASGYTFTSYWIGWVRQAPGQGLEWIGDIYPGGGYTNYNEKFKGRVTITRDTSTSTAYLELSSLRSEDTAVYYCARLAGSSYRGAMDSWGQGTLVTVSS
VL: DIQMTQSPSSLSASVGDRVTITCKASQGFNKYVAWYQQKPGKAPKLLIYYTSTLQPGVPSRFSGSGSGRDYTLTISSLQPEDFATYYCLQYGDLLYAFGQGTKVEIKR
notes: variable region derived from WO2016040724; also called recombinant IgG antibody PR000014
As to B1, the binding result with human B7H4 is “binds”.

B2: ROR1 antibody PR000374 (antibody, human IgG1, kappa, V domains shown)
VH: EVQLVESGGGLVQPGRSLRLSCTASGSDINDYPITWVRQAPGQGLEWIGFINSGGSTWYASWVKGRFTISRDDSKSIAYLQMNSLKTEDTAVYYCARGYSTYYRDFNIWGQGTLVTVSS
VL: DIQMTQSPSSLSASVGDRVTINCQASQSIDSNLAWFQQKPGQPPKLLIYRASNLASGVPDRFSGSGSGTDFTLTISSLEAEDVATYYCLGGVGAVSYRTSFGGGTKVEIKR
notes: variable region derived from WO2016094873; also called recombinant IgG antibody PR000374
Regarding B2, the binding result in the assay with human ROR1 was “binds”.

The values are drawn from patent US20220348661A1 (HARBOUR BIOMED SHANGHAI, published 2022).
